This is an account of results in article PMC5426795, “Controlling transferrin receptor trafficking with GPI-valence in bloodstream stage African trypanosomes” (PLoS Pathogens, 2017).

What all share (experiment): native gel or EMSA; BN-PAGE (4-16% gradient) of 1% dodecylmaltoside extracts of cell lines cultured 24 hr with tetracycline, without or with 4 M urea; immunoblot with anti-TfR or anti-VSG221
On the technique in general: Mobility shift assays separate free from complexed probe on a gel.

The target of data set [1] is ESAG6, GPI-anchored subunit of the transferrin receptor (TfR) (T. brucei brucei (Lister 427)).
The target of data set [2] is ESAG7, subunit of the transferrin receptor (TfR) without GPI anchor (T. brucei brucei (Lister 427)).
Data set [3] deals with the molecule itself.

Turning to “ESAG6, GPI-anchored subunit of the transferrin receptor (TfR) (natural protein)”, the stoichiometry N (in general, a count of units in the complex or per binding partner) in data set [1] was found to be 2. Molecule “ESAG7, subunit of the transferrin receptor (TfR) without GPI anchor (natural protein)” displayed a stoichiometry N in data set [2] of 2.

B1: variant surface glycoprotein VSG221 (MITat1.2) (natural protein)
chain: AAEKGFKQAFWQPLCQVSEELDDQPKGALFTLQAAASKIQKMRDAALRASIYAEINHGTNRAKAAVIVANHYAMKADSGLEALKQTLSSQEVTATATASYLKGRIDEYLNLLLQTKESGTSGCMMDTSGTNTVTKAGGTIGGVPCKLQLSPIQPKRPAATYLGKAGYVGLTRQADAANNFHDNDAECRLASGHNTNGLGKSGQLSAAVTMAAGYVTVANSQTAVTVQALDALQEASGAAHQPWIDAWKAKKALTGAETAEFRNETAGIAGKTGVTKLVEEALLKKKDSEASEIQTELKKYFSGHENEQWTAIEKLISEQPVAQNLVGDNQPTKLGELEGNAKLTTILAYYRMETAGKFEVLTQKHKPAESQQQAAETEGSCNKKDQNECKSPCKWHNDAENKKCTLDKEEAKKVADETAKDGKTGNTNTTGSS
modifications: GPI anchor, C-terminal
notes: variant surface glycoprotein VSG221 of MITat1.2, T. brucei brucei Lister 427; Internal control of the BN-PAGE; also called dVSG; mVSG; source: endogenous, bloodstream form T. brucei brucei Lister 427 (MITat1.2), dodecylmaltoside extract
Regarding B1, in data set [3], the “stoichiometry N” value was 2.
